Measurements as given in IntAct's records for PubMed 17318191.

B1: Catenin beta-1 (Homo sapiens), P35222 (parent)
chain: MATQADLMELDMAMEPDRKAAVSHWQQQSYLDSGIHSGATTTAPSLSGKGNPEEEDVDTSQVLYEWEQGFSQSFTQEQVADIDGQYAMTRAQRVRAAMFPETLDEGMQIPSTQFDAAHPTNVQRLAEPSQMLKHAVVNLINYQDDAELATRAIPELTKLLNDEDQVVVNKAAVMVHQLSKKEASRHAIMRSPQMVSAIVRTMQNTNDVETARCTAGTLHNLSHHREGLLAIFKSGGIPALVKMLGSPVDSVLFYAITTLHNLLLHQEGAKMAVRLAGGLQKMVALLNKTNVKFLAITTDCLQILAYGNQESKLIILASGGPQALVNIMRTYTYEKLLWTTSRVLKVLSVCSSNKPAIVEAGGMQALGLHLTDPSQRLVQNCLWTLRNLSDAATKQEGMEGLLGTLVQLLGSDDINVVTCAAGILSNLTCNNYKNKMMVCQVGGIEALVRTVLRAGDREDITEPAICALRHLTSRHQEAEMAQNAVRLHYGLPVVVKLLHPPSHWPLIKATVGLIRNLALCPANHAPLREQGAIPRLVQLLVRAHQDTQRRTSMGGTQQQFVEGVRMEEIVEGCTGALHILARDVHNRIVIRGLNTIPLFVQLLYSPIENIQRVAAGVLCELAQDKEAAEAIEAEGATAPLTELLHSRNEGVATYAAAVLFRMSEDKPQDYKKRLSVELTSSLFRTEPMAWNETADLGLDIGAQGEPLGYRQDDPSYRSFHSGGYGQDALGMDPMMEHEMGGHHPGADYPVDGLPDLGHAQDLMDGLPPGDSNQLAWFDTDL

Variants of: B1
Conditions: with axin1_human AXIN1, O15169
Sequence of axin1_human AXIN1, O15169 (O15169 whole entry): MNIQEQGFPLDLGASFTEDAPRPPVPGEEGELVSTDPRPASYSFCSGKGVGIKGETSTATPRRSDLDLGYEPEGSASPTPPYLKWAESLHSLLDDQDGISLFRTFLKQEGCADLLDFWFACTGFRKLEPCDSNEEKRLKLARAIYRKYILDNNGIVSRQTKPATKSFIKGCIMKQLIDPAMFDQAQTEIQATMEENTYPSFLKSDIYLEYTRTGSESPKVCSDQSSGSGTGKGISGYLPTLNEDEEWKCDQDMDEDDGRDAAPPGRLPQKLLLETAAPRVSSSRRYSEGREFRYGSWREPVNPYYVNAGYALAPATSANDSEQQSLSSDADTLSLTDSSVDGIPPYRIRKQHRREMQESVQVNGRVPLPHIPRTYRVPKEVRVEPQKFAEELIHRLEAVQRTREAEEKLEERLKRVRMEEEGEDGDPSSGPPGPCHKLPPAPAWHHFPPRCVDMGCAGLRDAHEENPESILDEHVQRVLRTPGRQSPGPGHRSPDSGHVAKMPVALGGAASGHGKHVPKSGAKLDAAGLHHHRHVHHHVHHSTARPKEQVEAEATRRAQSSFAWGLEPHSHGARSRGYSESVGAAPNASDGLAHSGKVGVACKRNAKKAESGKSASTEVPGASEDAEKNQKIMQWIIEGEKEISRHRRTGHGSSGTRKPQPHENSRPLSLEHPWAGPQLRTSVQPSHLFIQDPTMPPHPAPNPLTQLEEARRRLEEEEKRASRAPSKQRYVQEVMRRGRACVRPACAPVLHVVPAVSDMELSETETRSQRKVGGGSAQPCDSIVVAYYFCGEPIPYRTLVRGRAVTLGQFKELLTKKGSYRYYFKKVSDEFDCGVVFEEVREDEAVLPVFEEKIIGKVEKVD

| effect of a mutation on the interaction | Variant |
| --- | --- |
| disrupting interaction | Y142F |
| decreasing interaction | Y654F |
